According to patent publication US20240254234A1 (NOVIMMUNE, published 2024):
Positions count from the first letter of the chain named. Blank lines part the entries; values can stand above or below the binder they belong to.

Legend:
[1] = target: T1, cynomolgus neonatal Fc Receptor (FcRn) (cynomolgus, UniProt Q8SPV9 24-297; Q8SPW0 21-119); assay: Octet (printed: Octet surface plasmon resonance), n = 2
T1 construct: also called FcRn (Cynomolgus)

[2] = target: T2, mouse neonatal Fc Receptor (FcRn) (mouse, UniProt Q61559 22-297; P01887 21-119); assay: as above
T2 construct: also called FcRn (Mouse)
T2 sequence (looked up) 1: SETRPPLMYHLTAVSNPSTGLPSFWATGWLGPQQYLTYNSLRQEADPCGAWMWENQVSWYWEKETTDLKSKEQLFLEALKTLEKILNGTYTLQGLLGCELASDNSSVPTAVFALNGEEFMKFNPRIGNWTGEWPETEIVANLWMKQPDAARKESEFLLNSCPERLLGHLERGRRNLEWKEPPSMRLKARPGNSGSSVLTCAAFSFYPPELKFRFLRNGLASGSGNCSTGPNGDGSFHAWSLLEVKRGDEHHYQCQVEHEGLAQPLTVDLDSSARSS
T2 sequence (looked up) 2: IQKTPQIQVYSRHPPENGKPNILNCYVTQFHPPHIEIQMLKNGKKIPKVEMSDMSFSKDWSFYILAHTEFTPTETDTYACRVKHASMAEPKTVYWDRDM

[3] = target: T3, human neonatal Fc Receptor (FcRn) (human, UniProt P55899 24-297; P61769 21-119); assay: as above
T3 construct: also called FcRn (Human)

[4] = target: T4, cynomolgus CD28 (cynomolgus, UniProt Q0PDN3 19-152); assay: Octet (printed: Octet surface plasmon resonance)
T4 construct: Recombinant form not described; also called CD28 (Cynomolgus)

[5] = target: T5, human CD64 (human, UniProt P12314 16-288); assay: Octet (printed: Octet surface plasmon resonance), n = 1
T5 construct: also called hCD64

[6] = target: T6, PD-L1 on HPAC cells (pre-activated with IFNγ) (human, UniProt Q9NZQ7 19-290); assay: flow cytometry on IFNγ-activated HPAC cells (PD-L1+), anti-human IgG secondary antibody, geometric mean
T6 construct: whole, on cells; also called PD-L1 expressing HPAC cells
Method: Cells were harvested, checked for viability and counted. 200′000 cells were incubated for 15 minutes at 4° C. with increasing concentrations of the antibodies diluted in FACS buffer (PBS 2% BSA, 0.1% NaN3). Cells were washed twice with cold FACS buffer and re-incubated for further 15 minutes at 4′C with a suitable anti-human IgG secondary antibody. Cells were washed twice with cold FACS buffer and resuspended in 150 μl FACS buffer with a compatible viability marker. Binding of antibodies to living cells was measured by flow cytometry using a Cytoflex Platform (Beckman Coulter). Data was analyzed with FlowJo™ v10 software (BD Life Sciences) and dose-response binding curves were drawn using GiraphPad Prism 9 software.

[7] = target: T7, human CD32a R167 (human, UniProt P12318 36-218); assay: Octet (printed: Octet surface plasmon resonance)
T7 construct: Allelic variant named only as R167; also called hCD32a R167
T7 sequence (looked up): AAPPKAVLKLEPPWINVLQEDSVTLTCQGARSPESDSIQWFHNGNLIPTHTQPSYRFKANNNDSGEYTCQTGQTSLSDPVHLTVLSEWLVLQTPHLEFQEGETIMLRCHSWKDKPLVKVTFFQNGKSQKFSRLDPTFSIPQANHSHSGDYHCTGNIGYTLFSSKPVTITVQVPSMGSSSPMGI

[8] = target: T8, human CD16b NA2 (human, UniProt O75015 17-200, limits assumed); assay: Octet (printed: Octet surface plasmon resonance)
T8 construct: also called hCD16b NA2

[9] = target: T9, human CD32a H167 (human, UniProt P12318 36-218); assay: Octet (printed: Octet surface plasmon resonance)
T9 construct: Allelic variant named only as H167; also called hCD32a H167
T9 sequence (looked up): T7 sequence (looked up) with R132H

[10] = target: T10, human CD16a V158 (human, UniProt P08637 17-208); assay: Octet (printed: Octet surface plasmon resonance)
T10 construct: Allelic variant named only as V158; also called hCD16a V158

[11] = target: T11, human CD16a F158 (human, UniProt P08637 17-208); assay: Octet (printed: Octet surface plasmon resonance)
T11 construct: Allelic variant named only as F158; also called hCD16a F158

[12] = target: T12, human CD32b (human, UniProt P31994 43-217); assay: Octet (printed: Octet surface plasmon resonance)
T12 construct: also called hCD32b
T12 sequence (looked up): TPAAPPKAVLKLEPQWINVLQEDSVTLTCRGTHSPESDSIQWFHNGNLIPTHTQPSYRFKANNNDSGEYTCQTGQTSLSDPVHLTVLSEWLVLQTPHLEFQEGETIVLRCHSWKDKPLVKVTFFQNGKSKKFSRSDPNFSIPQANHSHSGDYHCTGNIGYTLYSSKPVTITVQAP

[13] = target: T13, cynomolgus CD16 (cynomolgus, UniProt Q8SPW2 17-208); assay: Octet (printed: Octet surface plasmon resonance)
T13 construct: also called cyCD16

[14] = target: T14, mouse CD28 (mouse, UniProt P31041 20-149, limits assumed); assay: Octet (printed: Octet surface plasmon resonance), n = 2
T14 construct: Recombinant form not described; also called CD28 (Mouse)

[15] = target: T15, human PD-L1 (human, UniProt Q9NZQ7 19-238); assay: as above
T15 construct: Recombinant form not described; also called PD-L1 (Human); B7-H1

[16] = target: T16, human CD28 (human, UniProt P10747 19-152); assay: as above
T16 construct: Recombinant form not described; also called CD28 (Human)

[17] = target: T17, cynomolgus PD-L1 (cynomolgus, UniProt G7PSE7 19-238); assay: as above
T17 construct: Recombinant form not described; also called PD-L1 (Cynomolgus)

[18] = target: T18, mouse PD-L1 (mouse, UniProt Q9EP73 19-238, limits assumed); assay: as above
T18 construct: Recombinant form not described; also called PD-L1 (Mouse)

[19] = target: T19, mouse CD32b (mouse, UniProt P08101 30-207); assay: Octet (printed: Octet surface plasmon resonance)
T19 construct: also called mCD32b
T19 sequence (looked up): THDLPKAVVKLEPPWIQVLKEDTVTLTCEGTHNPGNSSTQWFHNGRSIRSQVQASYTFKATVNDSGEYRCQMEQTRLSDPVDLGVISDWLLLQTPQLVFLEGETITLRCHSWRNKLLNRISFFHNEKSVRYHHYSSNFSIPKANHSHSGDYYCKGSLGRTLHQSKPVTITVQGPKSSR

[20] = target: T20, mouse CD64 (mouse, UniProt P26151 25-297); assay: Octet (printed: Octet surface plasmon resonance)
T20 construct: also called mCD64
T20 sequence (looked up): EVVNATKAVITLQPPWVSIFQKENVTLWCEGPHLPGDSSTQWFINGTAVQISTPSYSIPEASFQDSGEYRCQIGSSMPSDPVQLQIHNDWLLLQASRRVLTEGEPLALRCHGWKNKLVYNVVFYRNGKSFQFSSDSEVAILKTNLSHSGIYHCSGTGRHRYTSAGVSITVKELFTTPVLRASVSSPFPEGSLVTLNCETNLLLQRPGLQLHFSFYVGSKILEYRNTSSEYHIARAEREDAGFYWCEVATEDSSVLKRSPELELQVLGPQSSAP

[21] = target: T21, mouse CD16 (mouse, UniProt P08508 31-215); assay: Octet (printed: Octet surface plasmon resonance)
T21 construct: also called mCD16
T21 sequence (looked up): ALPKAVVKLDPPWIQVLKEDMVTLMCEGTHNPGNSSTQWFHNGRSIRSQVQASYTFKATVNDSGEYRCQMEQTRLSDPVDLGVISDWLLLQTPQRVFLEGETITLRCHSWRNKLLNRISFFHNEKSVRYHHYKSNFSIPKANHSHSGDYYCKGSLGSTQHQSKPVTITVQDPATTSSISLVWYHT

[22] = target: PD-L1 on engineered CHO-K1 artificial Antigen Presenting Cells (aAPC) (Homo sapiens (Human), UniProt Q9NZQ7 19-290); assay: cell-based or functional assay
Sequence of PD-L1 on engineered CHO-K1 artificial Antigen Presenting Cells (aAPC) (Q9NZQ7 19-290 limits assumed, change not shown): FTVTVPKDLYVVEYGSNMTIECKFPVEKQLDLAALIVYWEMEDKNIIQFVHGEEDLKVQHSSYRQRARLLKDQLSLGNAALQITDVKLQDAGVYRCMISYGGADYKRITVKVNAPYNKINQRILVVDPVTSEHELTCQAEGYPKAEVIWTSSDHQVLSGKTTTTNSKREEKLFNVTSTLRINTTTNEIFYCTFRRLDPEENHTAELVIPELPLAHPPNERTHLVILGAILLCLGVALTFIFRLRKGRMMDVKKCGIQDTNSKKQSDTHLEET

T6 sequence (Q9NZQ7 19-290): as the sequence (Q9NZQ7 19-290 limits assumed, change not shown) above
T15 sequence (Q9NZQ7 19-238 limits assumed): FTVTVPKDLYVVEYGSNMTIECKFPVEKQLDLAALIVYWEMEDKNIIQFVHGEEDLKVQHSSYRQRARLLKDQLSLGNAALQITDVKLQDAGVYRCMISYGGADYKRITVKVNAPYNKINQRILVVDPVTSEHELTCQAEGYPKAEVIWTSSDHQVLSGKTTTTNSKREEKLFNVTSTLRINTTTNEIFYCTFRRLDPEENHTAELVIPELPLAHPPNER
T13 sequence (Q8SPW2 17-208 limits assumed): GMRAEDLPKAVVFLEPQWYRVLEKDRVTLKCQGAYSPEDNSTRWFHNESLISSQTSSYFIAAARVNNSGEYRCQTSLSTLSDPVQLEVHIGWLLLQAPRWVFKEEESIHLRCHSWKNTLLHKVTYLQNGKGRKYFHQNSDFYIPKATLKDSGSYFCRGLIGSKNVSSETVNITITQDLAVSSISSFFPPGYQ
T10 sequence (P08637 17-208 F176V limits assumed): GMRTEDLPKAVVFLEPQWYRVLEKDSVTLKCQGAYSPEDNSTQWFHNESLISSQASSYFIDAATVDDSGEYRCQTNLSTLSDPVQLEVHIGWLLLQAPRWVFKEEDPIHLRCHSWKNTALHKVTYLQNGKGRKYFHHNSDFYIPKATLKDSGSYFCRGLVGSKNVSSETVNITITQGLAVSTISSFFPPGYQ
T5 sequence (P12314 16-288 limits assumed): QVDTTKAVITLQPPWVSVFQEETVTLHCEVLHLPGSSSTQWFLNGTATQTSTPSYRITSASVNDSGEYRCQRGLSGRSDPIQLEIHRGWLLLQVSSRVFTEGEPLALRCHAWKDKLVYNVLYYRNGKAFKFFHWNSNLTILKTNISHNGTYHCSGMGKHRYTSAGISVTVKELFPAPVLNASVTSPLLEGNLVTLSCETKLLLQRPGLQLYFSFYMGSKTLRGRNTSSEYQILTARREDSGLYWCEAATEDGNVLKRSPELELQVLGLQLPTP
T18 sequence (Q9EP73 19-238 limits assumed): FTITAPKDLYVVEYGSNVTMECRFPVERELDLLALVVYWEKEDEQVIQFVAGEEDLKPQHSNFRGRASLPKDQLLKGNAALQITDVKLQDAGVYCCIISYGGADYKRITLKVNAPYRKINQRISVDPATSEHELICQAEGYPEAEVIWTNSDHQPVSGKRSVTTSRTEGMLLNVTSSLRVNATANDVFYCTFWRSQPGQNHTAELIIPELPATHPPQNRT
T8 sequence (O75015 17-200 N65S limits assumed): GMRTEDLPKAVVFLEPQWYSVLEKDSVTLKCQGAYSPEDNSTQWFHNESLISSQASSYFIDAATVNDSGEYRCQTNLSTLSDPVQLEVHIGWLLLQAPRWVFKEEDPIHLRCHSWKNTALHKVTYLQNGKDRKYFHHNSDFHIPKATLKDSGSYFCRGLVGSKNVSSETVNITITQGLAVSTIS
T17 sequence (G7PSE7 entry or part of it): as the sequence (Q9NZQ7 19-238 limits assumed) above, with A33T, A34S, S62N, R68Q, Q82R, F173L, T185A, T192I, H215L counted along it
T11 sequence (P08637 17-208 limits assumed): as the sequence (P08637 17-208 F176V limits assumed) above, with V160F counted along it
T14 sequence (P31041 20-149 limits assumed): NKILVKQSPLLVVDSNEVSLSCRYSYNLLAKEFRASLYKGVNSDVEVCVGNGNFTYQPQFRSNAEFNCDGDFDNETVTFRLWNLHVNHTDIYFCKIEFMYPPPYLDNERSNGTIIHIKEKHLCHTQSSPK

Kd [1]: 8.6 nM
Kd [2]: 0.06 nM
Kd [3]: 7.1 nM
Kd [4]: ~54 nM
Kd [5]: 804 nM
EC50 (read off the curve) [6]: ~0.9 µg/mL
Kd [14]: 11100 nM
Kd [15]: 0.3 nM
Kd [16]: 54 nM
Kd [17]: 1.8 nM
Kd [18]: 0.79 nM
B1: AI3S79/N (bispecific antibody, human IgG1, kappa, lambda, L234A L235A)
heavy: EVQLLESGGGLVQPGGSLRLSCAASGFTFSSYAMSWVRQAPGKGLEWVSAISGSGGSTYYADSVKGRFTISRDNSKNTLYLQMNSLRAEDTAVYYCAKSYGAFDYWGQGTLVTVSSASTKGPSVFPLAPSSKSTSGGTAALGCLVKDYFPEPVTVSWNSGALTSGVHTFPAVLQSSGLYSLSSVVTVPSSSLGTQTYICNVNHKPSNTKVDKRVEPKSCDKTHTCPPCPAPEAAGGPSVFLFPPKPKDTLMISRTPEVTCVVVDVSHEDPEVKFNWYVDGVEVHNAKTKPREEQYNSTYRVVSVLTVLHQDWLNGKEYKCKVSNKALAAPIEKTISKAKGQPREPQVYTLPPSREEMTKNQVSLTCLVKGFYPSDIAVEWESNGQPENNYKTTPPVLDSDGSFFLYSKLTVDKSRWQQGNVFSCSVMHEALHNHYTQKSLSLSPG
light 1: not shown
light 2: QSALTQPASVSGSPGQSITISCTGTSSDVFRPPLVSWYQQHPGKAPKLMIYFASLRPSGVSNRFSGSKSGNTASLTISGLQAEDEADYYCSSWDHTGDGHVFGGGTKLTVLGQPKAAPSVTLFPPSSEELQANKATLVCLISDFYPGAVTVAWKADSSPVKAGVETTTPSKQSNNKYAASSYLSLTPEQWKSHRSYSCQVTHEGSTVEKTVAPTECS
notes: also called PD-L1xCD28 bsAb; PD-L1xCD28 κλ body
binding result [7]: no binding (tested: highest tested concentration: 2000 nM)
binding result [8]: no binding (tested: highest tested concentration: 2000 nM)
binding result [9]: no binding (tested: highest tested concentration: 2000 nM)
binding result [10]: no binding (tested: highest tested concentration: 2000 nM)
binding result [11]: no binding (tested: highest tested concentration: 2000 nM)
binding result [12]: no binding (tested: highest tested concentration: 2000 nM)
binding result [13]: no binding (tested: highest tested concentration: 2000 nM)
binding result [19]: no binding (tested: highest tested concentration: 2000 nM)
binding result [20]: no binding (tested: highest tested concentration: 2000 nM)
binding result [21]: no binding (tested: highest tested concentration: 2000 nM)

EC50 (read off the curve): RLU in the PD-1/PD-L1 blockade bioassay (blocked partner m28) [22]: ~0.02 µg/mL
EC50 (read off the curve) [6]: ~0.6 µg/mL
B2: S79 mAb (antibody, V domains shown)
VH: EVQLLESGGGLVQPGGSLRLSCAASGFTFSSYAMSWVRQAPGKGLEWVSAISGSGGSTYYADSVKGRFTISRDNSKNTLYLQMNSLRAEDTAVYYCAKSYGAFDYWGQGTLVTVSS
VL: QSALTQPASVSGSPGQSITISCTGTSSDVFRPPLVSWYQQHPGKAPKLMIYFASLRPSGVSNRFSGSKSGNTASLTISGLQAEDEADYYCSSWDHTGDGHVFGGGTKLTVL
notes: also called bivalent PD-L1 mAb based on the anti-PD-L1 arm S79
